Source: PMC8497620, “Structure and inhibition of Cryptococcus neoformans sterylglucosidase to develop antifungal agents” (Nature Communications, 2021)

These substances were tested against C. neoformans Sgl1 (Cryptococcus neoformans var. grubii, UniProt J9W473) (assay: H/D exchange mass spectrometry mapping of disordered regions). Conditions: H/D exchange MS of C. neoformans Sgl1; per peptide (amino acids Start-End, Sequence); Fig S2a.
Chain of C. neoformans Sgl1 (J9W473 entry or part of it): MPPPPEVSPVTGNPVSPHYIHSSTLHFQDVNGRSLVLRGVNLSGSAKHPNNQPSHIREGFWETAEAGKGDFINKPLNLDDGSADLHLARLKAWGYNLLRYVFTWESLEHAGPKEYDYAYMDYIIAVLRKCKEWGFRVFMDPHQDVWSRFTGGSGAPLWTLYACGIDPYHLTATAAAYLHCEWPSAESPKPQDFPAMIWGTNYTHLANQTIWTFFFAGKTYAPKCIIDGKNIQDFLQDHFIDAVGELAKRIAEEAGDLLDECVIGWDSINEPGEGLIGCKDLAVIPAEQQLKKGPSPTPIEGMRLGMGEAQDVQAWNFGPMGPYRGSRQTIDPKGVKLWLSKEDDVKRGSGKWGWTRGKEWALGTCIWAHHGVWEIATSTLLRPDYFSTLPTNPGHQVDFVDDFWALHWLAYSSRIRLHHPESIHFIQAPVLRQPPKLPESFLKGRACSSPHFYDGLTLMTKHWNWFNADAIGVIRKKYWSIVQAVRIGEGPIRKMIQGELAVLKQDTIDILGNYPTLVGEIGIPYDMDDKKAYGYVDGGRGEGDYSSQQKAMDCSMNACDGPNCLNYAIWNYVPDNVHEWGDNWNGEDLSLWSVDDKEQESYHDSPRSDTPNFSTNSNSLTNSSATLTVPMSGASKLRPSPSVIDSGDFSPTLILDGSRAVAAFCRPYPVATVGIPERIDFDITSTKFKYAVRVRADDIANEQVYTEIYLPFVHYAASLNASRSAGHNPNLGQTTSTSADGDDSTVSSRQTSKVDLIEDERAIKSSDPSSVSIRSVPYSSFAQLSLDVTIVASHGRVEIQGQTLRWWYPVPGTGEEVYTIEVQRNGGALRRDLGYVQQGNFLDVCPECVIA
Procedure: HDX-MS reactions were performed in a similar manner as is outlined in previous publications. HDX reactions were conducted in a final reaction volume of 50 µL with a final Sgl1 concentration of 0.6 µM (30 pmol). Exchange was carried out in triplicate for a single time point (3 s at 4 °C). Hydrogen deuterium exchange was initiated by the addition of 48 µL of D2O buffer (100 mM NaCl (20 mM pH 6.0 Bis-Tris), 90.5% D2O (V/V) to 1 µL of protein and 1 µL of H2O. Exchange was terminated by the addition of ice-cold acidic quench buffer, resulting in a final concentration of 0.6 M guanidine-HCl and 0.9% FA post quench. Samples were immediately frozen in liquid nitrogen and stored at −80 °C. Fully deuterated samples were generated by first denaturing the protein in 2 M guanidine for 5 min at 20 °C. Following denaturing, 48 µL of D2O buffer was added to the denatured protein and allowed to incubate for 5 min at 20 °C before quenching. Samples were flash frozen and stored at −80 °C until injection onto the ultra-performance liquid chromatography (UPLC) system for proteolytic cleavage, peptide separation, and injection onto a QTOF for mass analysis.
Protein sample was rapidly thawed and injected onto a UPLC system kept in a cold box at 2 °C. The protein was run over two immobilized pepsin columns (Applied Biosystems; Porosyme 2-3131-00) and the peptides were collected onto a VanGuard Precolumn trap (Waters). The trap was eluted in line with an ACQUITY 1.7 μm particle, 100 × 1 mm^2 C18 UPLC column (Waters), using a gradient of 5–36% B (Buffer A 0.1% formic acid, Buffer B 100% acetonitrile) over 16 min. MS experiments were performed on an Impact QTOF (Bruker) and peptide identification was done by running tandem MS (MS/MS) experiments run in data-dependent acquisition mode. The resulting MS/MS dataset was analyzed using PEAKS7 (PEAKS) and a false discovery rate was set at 1% using a database of purified proteins and known contaminants. HDExaminer Software (Sierra Analytics) was used to automatically calculate the level of deuterium incorporation into each peptide. All peptides were manually inspected for correct charge state and presence of overlapping peptides. Deuteration levels were calculated using the centroid of the experimental isotope clusters, with correction for back exchange generated using the fully deuterated sample. The mass spectrometry proteomics data have been deposited to the ProteomeXchange Consortium via the PRIDE partner repository[31] with the dataset identifier PXD024981.
In the case of PVLRQPPKLPESF, the “% Deuterium incorporation, Average” value is reported as 50.6%.
LAVIPAEQQLKKGPSPTPIEG was tested, and the “% Deuterium incorporation, Average” value was 28.2%.
With IEDERAIKSSDPSSV the “% Deuterium incorporation, Average” value was 101.6%.
RAIKSSDPSSV was tested, and the “% Deuterium incorporation, Average” value was 101.5%.
In the case of AVLKQDTIDILGNYPTL, the “% Deuterium incorporation, Average” value is reported as 14.1%.
For NACDGPNCLNY, the “% Deuterium incorporation, Average” value was 17.8%.
IATSTLLRPDYFSTLPTNPGHQVDF was tested, and the “% Deuterium incorporation, Average” value was 31.3%.
For IDAVGEL, the “% Deuterium incorporation, Average” value was 5.7%.
With VNLSGSAKHPNNQPSHIREGF the “% Deuterium incorporation, Average” value was 45.8%.
LAVIPAEQQLKKGPSPTPIEGM was tested, and the “% Deuterium incorporation, Average” value was 28.2%.
For PVTGNPVSPHYIHSSTLHF, the “% Deuterium incorporation, Average” value was 30.4%.
For IEVQRNGGAL, the “% Deuterium incorporation, Average” value was 28.7%.
With INKPLNLDDGSADLHL the “% Deuterium incorporation, Average” value was 21.9%.
AVRIGEGPIRKMIQGEL was tested, and the “% Deuterium incorporation, Average” value was 20.2%.
With AVIPAEQQLKKGPSPTPIEGM the “% Deuterium incorporation, Average” value was 29.8%.
With WALHWLAY the “% Deuterium incorporation, Average” value was 4.9%.
In the case of DDKKAYGYVDGGRGEGDYSSQQKAMD, the “% Deuterium incorporation, Average” value is reported as 28.0%.
With IDSGDFSPTLIL the “% Deuterium incorporation, Average” value was 26.0%.
With LTVPMSGASKLRPSPSVIDSGDFSPTL the “% Deuterium incorporation, Average” value was 59.4%.
With VTIVASHGRVEIQGQTLRWWYPVPGTGE the “% Deuterium incorporation, Average” value was 23.1%.
In the case of VGEIGIPYDMDDKKAYGYVDGGRGEGDY, the “% Deuterium incorporation, Average” value is reported as 21.5%.
In the case of WESLEHAGPKEYDYA, the “% Deuterium incorporation, Average” value is reported as 8.8%.
For AKRIAEEAGDL, the “% Deuterium incorporation, Average” value was 9.2%.
STNSNSLTNSSATLTVPMSG was tested, and the “% Deuterium incorporation, Average” value was 99.8%.
With IEDERAIKSSDPSSVSIRSVPYSSF the “% Deuterium incorporation, Average” value was 100.4%.
For DVTIVASHGRVEIQGQTLRWWYPVPGTGEEVY, the “% Deuterium incorporation, Average” value was 16.6%.
DITSTKF was tested, and the “% Deuterium incorporation, Average” value was 7.2%.
With VIGWDSINEPGEGLIGCKDL the “% Deuterium incorporation, Average” value was 5.1%.
In the case of YVDGGRGEGDY, the “% Deuterium incorporation, Average” value is reported as 69.5%.
With WSVDDKEQESYHDSPRSDTPNF the “% Deuterium incorporation, Average” value was 83.4%.
FCRPYPVA was tested, and the “% Deuterium incorporation, Average” value was 21.1%.
For IDSGDFSPTL, the “% Deuterium incorporation, Average” value was 36.2%.
In the case of AVIPAEQQL, the “% Deuterium incorporation, Average” value is reported as 59.2%.
For VQRNGGALRRDLG, the “% Deuterium incorporation, Average” value was 72.0%.
With YACGIDPYHLTA the “% Deuterium incorporation, Average” value was 15.5%.
With SLEHAGPKEYD the “% Deuterium incorporation, Average” value was 7.5%.
IQAPVLRQPPKLPES was tested, and the “% Deuterium incorporation, Average” value was 35.7%.
For YVDGGRGEGDYSSQQ, the “% Deuterium incorporation, Average” value was 65.8%.
In the case of CVIGWDSINEPGEG, the “% Deuterium incorporation, Average” value is reported as 3.6%.
For LAYSSRIRLHHPESIHF, the “% Deuterium incorporation, Average” value was 4.9%.
RVFMDPHQDVWSRF was tested, and the “% Deuterium incorporation, Average” value was 4.4%.
With NASRSAGHNPNLGQTTSTSADGDDST the “% Deuterium incorporation, Average” value was 100.5%.
In the case of WALGTCI, the “% Deuterium incorporation, Average” value is reported as 3.3%.
IDILGNYPTL was tested, and the “% Deuterium incorporation, Average” value was 20.4%.
For LTVPMSGASKLRPSPSVIDSGD, the “% Deuterium incorporation, Average” value was 65.2%.
With DVTIVASHGRVEIQGQT the “% Deuterium incorporation, Average” value was 25.2%.
For YACGIDPYHLTATA, the “% Deuterium incorporation, Average” value was 18.2%.
In the case of STNSNSLTNSSAT, the “% Deuterium incorporation, Average” value is reported as 101.5%.
With RRDLGYV the “% Deuterium incorporation, Average” value was 59.6%.
RGVNLSGSAKHPNNQPSHIREGF was tested, and the “% Deuterium incorporation, Average” value was 44.7%.
In the case of VGELAKRIAEEAGDL, the “% Deuterium incorporation, Average” value is reported as 5.8%.
With WNFGPMGPYRGSRQTIDPKGVKL the “% Deuterium incorporation, Average” value was 28.6%.
